This data set concerns the molecule itself. Description: native MS.

We go through 1 protein from paper PMC5009729 (Nucleic Acids Research, 2016).

B1: Cse2 (natural protein)
chain: MADEIDAMALYRAWQQLDNGSCAQIRRVSEPDELRDIPAFYRLVQPFGWENPRHQQALLRMVFCLSAGKNVIRHQDKKSEQTTGISLGRALANSGRINERRIFQLIRADRTADMVQLRRLLTHAEPVLDWPLMARMLTWWGKRERQQLLEDFVLTTNKNA
B1: the binding result was “binds”.
